Assay [1] concerns the target T1, 重组AFP抗原(爱必信生物，货号Abt-P-208，GenbankID:174) (UniProt P02771 19-609, limits assumed).
T1 construct: Bought recombinant antigen; also called 甲胎蛋白; α-fetoprotein
T1 sequence (looked up): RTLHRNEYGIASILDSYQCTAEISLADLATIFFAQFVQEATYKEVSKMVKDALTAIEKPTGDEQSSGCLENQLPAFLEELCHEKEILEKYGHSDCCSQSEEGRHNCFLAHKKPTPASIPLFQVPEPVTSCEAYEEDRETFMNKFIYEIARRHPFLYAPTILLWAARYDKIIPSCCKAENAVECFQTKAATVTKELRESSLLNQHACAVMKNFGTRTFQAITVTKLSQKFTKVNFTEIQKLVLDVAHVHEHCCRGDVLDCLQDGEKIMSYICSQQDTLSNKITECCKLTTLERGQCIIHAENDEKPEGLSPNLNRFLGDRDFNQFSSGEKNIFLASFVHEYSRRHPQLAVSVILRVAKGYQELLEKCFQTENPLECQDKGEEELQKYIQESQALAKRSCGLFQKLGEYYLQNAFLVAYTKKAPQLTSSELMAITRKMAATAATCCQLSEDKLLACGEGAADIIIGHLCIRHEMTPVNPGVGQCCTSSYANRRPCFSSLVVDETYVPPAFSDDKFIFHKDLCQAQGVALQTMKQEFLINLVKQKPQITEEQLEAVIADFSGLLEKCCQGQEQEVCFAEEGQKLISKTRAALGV
Nature of the assay: ELISA additivity test on coated AFP.

The target in the next assay is T2, 血清标本中的AFP抗原 (UniProt P02771 19-609).
T2 construct: also called 质控血清AFP; 标准血清中的AFP
T2 sequence (looked up): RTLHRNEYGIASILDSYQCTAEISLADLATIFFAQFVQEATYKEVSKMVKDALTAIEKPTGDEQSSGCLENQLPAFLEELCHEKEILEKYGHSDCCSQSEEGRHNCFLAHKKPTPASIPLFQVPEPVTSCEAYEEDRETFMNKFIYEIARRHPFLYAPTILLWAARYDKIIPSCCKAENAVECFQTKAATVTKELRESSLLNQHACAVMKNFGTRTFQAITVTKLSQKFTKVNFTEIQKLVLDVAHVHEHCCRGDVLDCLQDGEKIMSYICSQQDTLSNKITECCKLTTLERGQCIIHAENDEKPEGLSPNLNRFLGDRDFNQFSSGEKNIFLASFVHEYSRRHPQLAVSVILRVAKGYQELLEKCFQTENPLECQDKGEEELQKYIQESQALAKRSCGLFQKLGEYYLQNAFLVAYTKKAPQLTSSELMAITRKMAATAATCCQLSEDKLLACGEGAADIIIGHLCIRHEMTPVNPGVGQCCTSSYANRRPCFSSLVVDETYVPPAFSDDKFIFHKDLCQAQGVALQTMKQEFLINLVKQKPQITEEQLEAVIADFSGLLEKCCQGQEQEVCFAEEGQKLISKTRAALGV
In words: double-antibody sandwich chemiluminescence assay, detection antibody.

B1: 纳米抗体1C5 (VHH)
VHH: QVQLQESGGGLVQAGGSLRLSCKASERTFSSYSMAWYRQAPGKKREFVASISWDDERTYYTDSVKGRFTISRPNAKNTVYLQMNSLKPEDTAVYYCAVGGLSDGLGPSYDYWGQGTQVTVSS
As to B1, the binding result in assay [1] is reported as “binds”.

B2: 带有化学发光区序列的纳米抗体1C5-HAP (other)
chain: QVQLQESGGGLVQAGGSLRLSCKASERTFSSYSMAWYRQAPGKKREFVASISWDDERTYYTDSVKGRFTISRPNAKNTVYLQMNSLKPEDTAVYYCAVGGLSDGLGPSYDYWGQGTQVTVSSGGGGSGGGGSGGGGSIIPVEEENPDFWNREAAEALGAAKKLQPAQTAAKNLIIFLGDGMGVSTVTAARILKGQKKDKLGPEIPLAMDRFPYVALSKTYNVDKHVPDSGATATAYLCGVKGNFQTIGLSAAARFNQCNTTRGNEVISVMNRAKKAGKSVGVVTTTRVQHASPAGTYAHTVNRNWYSDADVPASARQEGCQDIATQLISNMDIDVILGGGRKYMFRMGTPDPEYPDDYSQGGTRLDGKNLVQEWLAKRQGARYVWNRTELMQASLDPSVTHLMGLFEPGDMKYEIHRDSTLDPSLMEMTEAALRLLSRNPRGFFLFVEGGRIDHGHHESRAYRALTETIMFDDAIERAGQLTSEEDTLSLVTADHSHVFSFGGYPLRGSSIFGLAPGKARDRKAYTVLLYGNGPGYVLKDGARPDVTESESGSPEYRQQSAVPLDEETHAGEDVAVFARGPQAHLVHGVQEQTFIAHVMAFAACLEPYTACDLAPPAGTTD
notes: Expressed in 293 cells
Turning to B2, the binding result with 血清标本中的AFP抗原 is listed as “binds”.

(Values after CN113173994A (SHENZHEN INNOVA NANOBODI CO LTD, dated 2021).)
